Key:
Format in all cases: cell-based
gene editing with Cas9 = test: Screen of 322 new SSAP proteins, gene editing activity with Cas9 (Table 5); parameters: Cas9 with SSAP activity: scale not given here
How it was run: (§1)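 Read-out is gene editing activity. Candidates come from sequence data mining, are made synthetically, and are tested alongside either nuclease-active Cas9 or catalytically dead dCas9.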

[1] = test system: gene editing with Cas9 and dCas9; test: Screen of 322 new SSAP proteins, activity across all experiments (Cas9 and dCas9, Table 5); parameters: scale not given here
How it was run: as §1

gene editing with dCas9 = test: Screen of 322 new SSAP proteins, gene editing activity with dCas9 (Table 5); parameters: dCas9 with SSAP activity: scale not given here
How it was run: as §1

Molecule	Cas9 with SSAP activity (gene editing with Cas9)	Cas9 with SSAP activity (normalized) (gene editing with Cas9)	Activity across all experiments [1]	dCas9 with SSAP activity (gene editing with dCas9)	dCas9 with SSAP activity (normalized) (gene editing with dCas9)
SSAP_107: SEQ ID NO: 276; Ammoniphilus oxalaticus (protein, listed as Ammoniphilus oxalaticus) STKATSNELKNQLANRQGNNAATNNNPANTIAAYLKRMAPEIEKALPAHMDADRLARIALTTIRTTPKLLECTIPSLMGAVMQSAQLGLEPGLIGHCYIIPYGKEATFIIGYKGMIDLARRSGNIESIYAHAVYKNDEFEYEYGLKPNLVHKPAMSDQGDFIGAYAVAHFKDGGYQFEFMPKEEIDKRRNRSAASKGGPWVTDYEEMAKKTVVRHMWKYLPISIEIQQAATQDEVVRKDITEDPMPVDVLDIPFEASDAEETSEEGEINFD	0.596	1.792	−1.782	−4.159	−0.615
SSAP_25: SEQ ID NO: 194 (protein) NNEVMEKSVEYEVNGNSVKLTPNMIKQFITKGNADVTDQEAIMFMKLAEQQQLNPFLNEVYLIKFKGKPAQNIVAKEAFMKRAEKHSEYDGLEAGIIVQRGEEIKELPGAVCLPTDNLLGGWARVYRKDRKNPFYVQLDFKEFSKGQATWNQMPKNMIRKTAIVNALREAFPEALGAMYTEDDARLEEVKTAEPIKEKAETTQILENKFKELSENGQTEVGDEQTNESTEPEPTAKQEQLL	0.597	0.880	−1.758	−4.113	−0.660
SSAP_219: SEQ ID NO: 388; Streptomyces uncialis (protein, listed as Streptomyces uncialis) SQISTAIATRDNGPAAVVEQYRESLALVMPSHLQQRVGAWIRNTQGLLRRDSKLMEAAQNDVGQFVAVLMDAARLGLEPGTEHYYLVPRWNNKKRATEVTGVRGYQGEIELMYRAGAVSSVIVEVVHTQDQFRFRPGRDARPVHDIDWDLEDRGSLRLVYAYAVMKDGATSKVVVLNRQHIAAARAKSDSAAKDWSPWNTDEEAMWLKTAAHRLTKWVPTSAEYLREQIRAQVAVESEQRPEPLPVAPPPAPGTVDADPDDEGPIDGELVD	0.580	0.924	−1.792	−4.163	−0.726
SSAP_31: SEQ ID NO: 200 (protein) TTVNQTELKNKLAEKAKTPAKTGNTVFDLIRKMEPEIKRALPKQISPERFARIAMTAVRNTPKLQACEPISFIAALMQSAQLGLEPNTPLGQAYLIPYGKEVQFQLGYQGMLTLAYRTGEYQSIYAMPVYANDEFEYEYGLNEKLVHKPAPDPEGEPIYYYAVYKLKNGGHGFVVMSRQQIERHRDKYSPSAKQGKFSPWNTDFDSMAKKTVLKQLLKYAPKSVEFATQIAQDETIKTEIAEDMTEVQGIEVEYEATDDQENQENQEQED	−4.826	−0.842	−4.468	−4.110	−0.643
SSAP_183: SEQ ID NO: 352; Clostridium sp. CAG: 277 (protein, listed as Clostridium sp.) DFKEELAAKAEVAATTKKSDGVKLTKNMSIVDMIKALEPEIKRALPSVLTPERFVRMALTAVNNTPALAQCTPMSFIAALMNAAQLGLEPNTPLGQAYLIPYKNKKKGVVECQFQIGYKGMIDLVYRNDNVQTIQAHIVRENDHFEYELGLESKLRHIPAMEGRGEMMYVYALFKLTNGGYGFEVLNKEAVIAHAERYSPSYDGFSPWKTDFESKGLELFLILDLSSKQSGK	−0.476	−0.351	−2.313	−4.151	−0.615
SSAP_3: SEQ ID NO: 167; RecT Escherichia coli (protein) MTKQPPIAKADLQKTQGNRAPAAVKNSDVISFINQPSMKEQLAAALPRHMTAERMIRIATTEIRKVPALGNCDTMSFVSAIVQCSQLGLEPGSALGHAYLLPFGNKNEKSGKKNVQLIIGYRGMIDLARRSGQIASLSARVVREGDEFSFEFGLDEKLIHRPGENEDAPVTHVYAVARLKDGGTQFEVMTRKQIELVRSLSKAGNNGPWVTHWEEMAKKTAIRRLFKYLPVSIEIQRAVSMDEKEPLTIDPADSSVLTGEYSVIDNSEE	−0.942	−0.788	0.058	1.058	0.695
SSAP_147: SEQ ID NO: 316; Staphylococcus felis (protein, listed as Staphylococcus felis) ANANSFKEQVSNKNEVSENNNTPQQKTKGPRQQVSDLLERMAPEIQKALPSHMSAERMARIAMTAISSNTQLLECNPRSLIGALLQASQIGLEPNTALGQAYLIPYYNRNKGEFEAQLQLSYLGLIELATRTGQYKAIYAHEVYKEDEFYYEYGLHKNLVHKPVDDPKSEPIGYYAVYHLQNGGYDFSFWTRNKVELHSGQYSKAVQKGWNSPWKTDFNAMAKKTVLKDLLKYAPKSVEVSRAVGTDSKVSEISQNGEIIDVTDYSKEEE	0.679	1.062	−1.672	−4.023	−0.498
SSAP_109: SEQ ID NO: 278; Bacillus (multispecies) (protein, listed as Bacillus sp.) TQAEKLKNDIAKQEQKNEVAQDDKPKTILDVMMQHKESFEMALPKHLDADRLIRLAVTEFRKNPMLKECTPESLLGAVMQAAQVGLEPDALGSAYLVPYYNKNKNVKEVQLQIGYKGLIELVRRSGQVTSIVANEVYENDEFDFEYGINEKLYHKPTMDADRGKLKCFYAYARFKDGGHAFTVMSVEQINQIRDKFSKSQKNGKHFGPWADHYESMAKKTVIKQLVKYMPISVEIQNQITRDETVHSSFKEEPKPIYAFEESPDIIDAPIEN	−1.697	−0.475	−2.932	−4.168	−0.640
SSAP_226: SEQ ID NO: 395; Companilactobacillus furfuricola (protein, listed as Companilactobacillus furfuricola) VNNLAKLPIQTLVKEPKIVEKFESVLGNKSAQFVTSLINVVNSNQSLKNVDQMSVVASAMVAASLDLPINQDLGYMWLVPYGGKAQPQMGYKGYIQLAQRTGQYKHLNAVAVYEDEFQSYNPLTEQLDYEPHFKDRDSSEKPVGYVGYFELTSGFEKTVYWTRKQIDDHRQSFSKMSGKSKPSGVWATNFDAMALKTVLRNLISKWGPMSVEMQKAYESDEHATTISANDIKDIEVQEQEPATDVSQLINGSATEVNVNDSTTNSKDSE	−1.843	−1.377	−3.017	−4.191	−0.610
SSAP_299: SEQ ID NO: 468; Paenibacillus sp. JCM 10914 (protein, listed as Paenibacillus sp.) TMDYVTKIQDALDRELDAKHDALPSGFKKTRFSENCRAYVKDYKDLQKYDAEEVASVLFKGAVLGLDFLAKECHVITEGSALRFQTDYKGEMTLVKKYSVRPILDIYAKNVREGDDFREEISGGKPLIHFNPRAFNNSKITGSFAVALFTDGGMVYETMPAEEIESIREHYGKNPGSDTWEKSQGEMYKRTVLRRLCKTIEIDFDAEQSLAYEAGSSFEFDREQQPKKRSPFNPPEVEESEVLSNDGITETQ	−4.631	−0.809	−4.441	−4.250	−0.686
SSAP_70: SEQ ID NO: 239 (protein) SNLKNQLANKAGGTATKKQPQTMQDWIKVMEPQIKKALPSVITAERFTRMALTAISTNPKLAECTPESFMGALMNAAQLGLEPNTPLGQAYLIPYGKSVQFQVGYKGLMELAQRSGQFKSIYAHTVYENDEFEVEYGLTQNIVHKPNFDDRGKPIGFYAVYKLTNGGENFVFMTQREVEEFGKAKSKTFNNGPWKTDFEAMAKKTVLKQLLKYAPIKVEFQREIAQDATIKTEIAEDMTEVPEEMVEAEYEVVEQNTMAEDADLKGTPFETK	−1.263	−0.349	−2.666	−4.070	−0.652
SSAP_171: SEQ ID NO: 340; Streptomyces indicus (protein, listed as Streptomyces indicus) STDARNAVARRAETVGQVEQQAQQQPTLAQQIERMKPEMERALPKHMSADRMARIALTLIRKNPDLATCNTQSFLGALMTCSQLGFEPGSPTQEAYIIPRKGNAEFQLGYQGMVTLFYQHPMASSIKVETVRENDYFEHEEGLEERLVHRPCATGPRGRAIAYYSVARLINGGRTFKVMYPDEIEERRQKLPSKNSPAWRDNYDEMAKKTVLRNHFKALPKSAQLARALAHDGTVRTDATADVIDVAPEYPQRPELEAGPTA	−0.924	−0.410	−2.528	−4.132	−0.827
SSAP_254: SEQ ID NO: 423; Pediococcus pentosaceus (protein, listed as Pediococcus pentosaceus) MNDISKVPMKVLVQQDKVQRMLENTLKGKTRQFTTSLINVVNSNQSLADVDQMSVIKSAMVAASLDLPIDQNLGFMWLVPYKGMATPQIGYKGYIQLALRTGQYKKLNTIVVHEGEMKYWNPLTEDFEYDPKGKESDEVIGYLGYLRMINGFEKTVYWTKQNIEDHRMKFSKMSGKAKPSGVWASNYDAMALKTVMRNLLSKWGIMSIEMQQAVVQDEKAPETDVRDVTPTETNSIDSLLAPEPKGEPINDSNEATVPTNAE	−1.160	−0.694	−2.669	−4.178	−0.675

Reference: patent US20250034594A1, “RNA-GUIDED GENOME RECOMBINEERING AT KILOBASE SCALE” (THE BOARD OF TRUSTEES OF THE LELAND STANFORD JUNIOR …, priority 2021, published 2025)
